Experimental data taken from patent US20250327097A1, “ORGANISMS PRODUCING LESS CROTONIC ACID” (Global Bioenergies, priority 2021, published 2025).

B1: N285M-N287T-S322T-N388M-K394R-C430N-L432F-L434W-S436N-dG462-Y469N (protein)
chain: MFLKSLREQINLLKRQGDLRIINRPVDSYLEAAAIIRRSTETKAPVPLMTNIKGYPGCSIVGGLAALSSNPEYPLSRVAMSLGLSTTASAQSIVQYLIDGLKKTPYLPVEIDSNSAPCKQNILRGEDASLAHFPIPQVHQHDGNRYVNTWGVFIVESPDGQWCNWSIQRVQYLNDRQMIALVFPSQHISDIWEEWVKIGKPMPYALVQGCEPIVPYIAGLPLLERNVNEAEYIGALYGKGIEVVKCETHDLRVPASSEVVIEGYFAITREGVEGPFGEFAGYIPMETSLQPILSITAISWQDDPIWPVVAEGKPVDEYHTCTGIGDAAAIQNVLLTANLPVSFVWVPLYSACHLMIVSINRHWRQTHPDLTSEQLTKKVGDVIHQTRMSIKLPRIVVLDDDVDPADTESLLWALATRIHPERKRYFYESNIFPWLNCYSEEERHNRKGKRVIIDALLPENHGAISSFDNAYPDDIKQRVLMHWETDFSHD
B2: N285M-N287T-S322T-N388M-K394R-C430N-L432F-L434W-S436N-dA463-S465I (protein)
chain: MFLKSLREQINLLKRQGDLRIINRPVDSYLEAAAIIRRSTETKAPVPLMTNIKGYPGCSIVGGLAALSSNPEYPLSRVAMSLGLSTTASAQSIVQYLIDGLKKTPYLPVEIDSNSAPCKQNILRGEDASLAHFPIPQVHQHDGNRYVNTWGVFIVESPDGQWCNWSIQRVQYLNDRQMIALVFPSQHISDIWEEWVKIGKPMPYALVQGCEPIVPYIAGLPLLERNVNEAEYIGALYGKGIEVVKCETHDLRVPASSEVVIEGYFAITREGVEGPFGEFAGYIPMETSLQPILSITAISWQDDPIWPVVAEGKPVDEYHTCTGIGDAAAIQNVLLTANLPVSFVWVPLYSACHLMIVSINRHWRQTHPDLTSEQLTKKVGDVIHQTRMSIKLPRIVVLDDDVDPADTESLLWALATRIHPERKRYFYESNIFPWLNCYSEEERHNRKGKRVIIDALLPENHGAIISFDYAYPDDIKQRVLMHWETDFSHD
B3: I283C-P284E-N287Q-S322T-N388M-K394R-C430N-L432F-L434W-S436N-dA463 (protein)
chain: MFLKSLREQINLLKRQGDLRIINRPVDSYLEAAAIIRRSTETKAPVPLMTNIKGYPGCSIVGGLAALSSNPEYPLSRVAMSLGLSTTASAQSIVQYLIDGLKKTPYLPVEIDSNSAPCKQNILRGEDASLAHFPIPQVHQHDGNRYVNTWGVFIVESPDGQWCNWSIQRVQYLNDRQMIALVFPSQHISDIWEEWVKIGKPMPYALVQGCEPIVPYIAGLPLLERNVNEAEYIGALYGKGIEVVKCETHDLRVPASSEVVIEGYFAITREGVEGPFGEFAGYCENEQSLQPILSITAISWQDDPIWPVVAEGKPVDEYHTCTGIGDAAAIQNVLLTANLPVSFVWVPLYSACHLMIVSINRHWRQTHPDLTSEQLTKKVGDVIHQTRMSIKLPRIVVLDDDVDPADTESLLWALATRIHPERKRYFYESNIFPWLNCYSEEERHNRKGKRVIIDALLPENHGAISSFDYAYPDDIKQRVLMHWETDFSHD
B4: N285M-N287T-S322T-N388M-K394R-C430N-L432F-L434W-S436N-dA463-S465V (protein)
chain: MFLKSLREQINLLKRQGDLRIINRPVDSYLEAAAIIRRSTETKAPVPLMTNIKGYPGCSIVGGLAALSSNPEYPLSRVAMSLGLSTTASAQSIVQYLIDGLKKTPYLPVEIDSNSAPCKQNILRGEDASLAHFPIPQVHQHDGNRYVNTWGVFIVESPDGQWCNWSIQRVQYLNDRQMIALVFPSQHISDIWEEWVKIGKPMPYALVQGCEPIVPYIAGLPLLERNVNEAEYIGALYGKGIEVVKCETHDLRVPASSEVVIEGYFAITREGVEGPFGEFAGYIPMETSLQPILSITAISWQDDPIWPVVAEGKPVDEYHTCTGIGDAAAIQNVLLTANLPVSFVWVPLYSACHLMIVSINRHWRQTHPDLTSEQLTKKVGDVIHQTRMSIKLPRIVVLDDDVDPADTESLLWALATRIHPERKRYFYESNIFPWLNCYSEEERHNRKGKRVIIDALLPENHGAIVSFDYAYPDDIKQRVLMHWETDFSHD
B5: I283L-P284E-N287Q-S322T-N388M-K394R-C430N-L432F-L434W-S436N-dA463 (protein)
chain: MFLKSLREQINLLKRQGDLRIINRPVDSYLEAAAIIRRSTETKAPVPLMTNIKGYPGCSIVGGLAALSSNPEYPLSRVAMSLGLSTTASAQSIVQYLIDGLKKTPYLPVEIDSNSAPCKQNILRGEDASLAHFPIPQVHQHDGNRYVNTWGVFIVESPDGQWCNWSIQRVQYLNDRQMIALVFPSQHISDIWEEWVKIGKPMPYALVQGCEPIVPYIAGLPLLERNVNEAEYIGALYGKGIEVVKCETHDLRVPASSEVVIEGYFAITREGVEGPFGEFAGYLENEQSLQPILSITAISWQDDPIWPVVAEGKPVDEYHTCTGIGDAAAIQNVLLTANLPVSFVWVPLYSACHLMIVSINRHWRQTHPDLTSEQLTKKVGDVIHQTRMSIKLPRIVVLDDDVDPADTESLLWALATRIHPERKRYFYESNIFPWLNCYSEEERHNRKGKRVIIDALLPENHGAISSFDYAYPDDIKQRVLMHWETDFSHD
B6: I283Q-P284E-N287Q-S322T-N388M-K394R-C430N-L432F-L434W-S436N-dA463 (protein)
chain: MFLKSLREQINLLKRQGDLRIINRPVDSYLEAAAIIRRSTETKAPVPLMTNIKGYPGCSIVGGLAALSSNPEYPLSRVAMSLGLSTTASAQSIVQYLIDGLKKTPYLPVEIDSNSAPCKQNILRGEDASLAHFPIPQVHQHDGNRYVNTWGVFIVESPDGQWCNWSIQRVQYLNDRQMIALVFPSQHISDIWEEWVKIGKPMPYALVQGCEPIVPYIAGLPLLERNVNEAEYIGALYGKGIEVVKCETHDLRVPASSEVVIEGYFAITREGVEGPFGEFAGYQENEQSLQPILSITAISWQDDPIWPVVAEGKPVDEYHTCTGIGDAAAIQNVLLTANLPVSFVWVPLYSACHLMIVSINRHWRQTHPDLTSEQLTKKVGDVIHQTRMSIKLPRIVVLDDDVDPADTESLLWALATRIHPERKRYFYESNIFPWLNCYSEEERHNRKGKRVIIDALLPENHGAISSFDYAYPDDIKQRVLMHWETDFSHD
B7: N285M-N287T-S322T-N388M-K394R-C430N-L432F-L434W-S436N-dG462-A470S (protein)
chain: MFLKSLREQINLLKRQGDLRIINRPVDSYLEAAAIIRRSTETKAPVPLMTNIKGYPGCSIVGGLAALSSNPEYPLSRVAMSLGLSTTASAQSIVQYLIDGLKKTPYLPVEIDSNSAPCKQNILRGEDASLAHFPIPQVHQHDGNRYVNTWGVFIVESPDGQWCNWSIQRVQYLNDRQMIALVFPSQHISDIWEEWVKIGKPMPYALVQGCEPIVPYIAGLPLLERNVNEAEYIGALYGKGIEVVKCETHDLRVPASSEVVIEGYFAITREGVEGPFGEFAGYIPMETSLQPILSITAISWQDDPIWPVVAEGKPVDEYHTCTGIGDAAAIQNVLLTANLPVSFVWVPLYSACHLMIVSINRHWRQTHPDLTSEQLTKKVGDVIHQTRMSIKLPRIVVLDDDVDPADTESLLWALATRIHPERKRYFYESNIFPWLNCYSEEERHNRKGKRVIIDALLPENHGAISSFDYSYPDDIKQRVLMHWETDFSHD
B8: P284D-N287Q-S322T-N388M-K394R-C430N-L432F-L434W-S436N-dA463 (protein)
chain: MFLKSLREQINLLKRQGDLRIINRPVDSYLEAAAIIRRSTETKAPVPLMTNIKGYPGCSIVGGLAALSSNPEYPLSRVAMSLGLSTTASAQSIVQYLIDGLKKTPYLPVEIDSNSAPCKQNILRGEDASLAHFPIPQVHQHDGNRYVNTWGVFIVESPDGQWCNWSIQRVQYLNDRQMIALVFPSQHISDIWEEWVKIGKPMPYALVQGCEPIVPYIAGLPLLERNVNEAEYIGALYGKGIEVVKCETHDLRVPASSEVVIEGYFAITREGVEGPFGEFAGYIDNEQSLQPILSITAISWQDDPIWPVVAEGKPVDEYHTCTGIGDAAAIQNVLLTANLPVSFVWVPLYSACHLMIVSINRHWRQTHPDLTSEQLTKKVGDVIHQTRMSIKLPRIVVLDDDVDPADTESLLWALATRIHPERKRYFYESNIFPWLNCYSEEERHNRKGKRVIIDALLPENHGAISSFDYAYPDDIKQRVLMHWETDFSHD
B9: N285M-N287T-S322T-N388M-K394R-C430N-L432F-L434W-S436N-dA463-A470S (protein)
chain: MFLKSLREQINLLKRQGDLRIINRPVDSYLEAAAIIRRSTETKAPVPLMTNIKGYPGCSIVGGLAALSSNPEYPLSRVAMSLGLSTTASAQSIVQYLIDGLKKTPYLPVEIDSNSAPCKQNILRGEDASLAHFPIPQVHQHDGNRYVNTWGVFIVESPDGQWCNWSIQRVQYLNDRQMIALVFPSQHISDIWEEWVKIGKPMPYALVQGCEPIVPYIAGLPLLERNVNEAEYIGALYGKGIEVVKCETHDLRVPASSEVVIEGYFAITREGVEGPFGEFAGYIPMETSLQPILSITAISWQDDPIWPVVAEGKPVDEYHTCTGIGDAAAIQNVLLTANLPVSFVWVPLYSACHLMIVSINRHWRQTHPDLTSEQLTKKVGDVIHQTRMSIKLPRIVVLDDDVDPADTESLLWALATRIHPERKRYFYESNIFPWLNCYSEEERHNRKGKRVIIDALLPENHGAISSFDYSYPDDIKQRVLMHWETDFSHD
B10: S185T-N388M-C430S-L432F-L434W-S436N (protein)
chain: MFLKSLREQINLLKRQGDLRIINRPVDSYLEAAAIIRRSTETKAPVPLMTNIKGYPGCSIVGGLAALSSNPEYPLSRVAMSLGLSTTASAQSIVQYLIDGLKKTPYLPVEIDSNSAPCKQNILRGEDASLAHFPIPQVHQHDGNRYVNTWGVFIVESPDGQWCNWSIQRVQYLNDRQMIALVFPTQHISDIWEEWVKIGKPMPYALVQGCEPIVPYIAGLPLLERNVNEAEYIGALYGKGIEVVKCETHDLRVPASSEVVIEGYFAITREGVEGPFGEFAGYIPNENSLQPILSITAISWQDDPIWPVVAEGKPVDEYHTCSGIGDAAAIQNVLLTANLPVSFVWVPLYSACHLMIVSINRHWRQTHPDLTSEQLTKKVGDVIHQTRMSIKLPKIVVLDDDVDPADTESLLWALATRIHPERKRYFYESSIFPWLNCYSEEERHNRKGKRVIIDALLPENHGAISSFDYAYPDDIKQRVLMHWETDFSHD

Tested on: 3-methylcrotonic acid
Assay type: biochemical, Yersinia frederiksenii
Design: key: “+” representing a low increase in activity; “++++” representing a high increase in activity

| Molecule | Activity relative to WT |
| --- | --- |
| B1 | ++++ |
| B2 | ++++ |
| B3 | ++++ |
| B4 | ++++ |
| B5 | ++++ |
| B6 | ++++ |
| B7 | ++++ |
| B8 | ++++ |
| B9 | ++++ |
| B10 | + |
